Source: the supplement of paper PMC7877785
± gives the uncertainty stated by the source.

Experiment: self-splicing fitness, log relative to wild type (ln ratio); higher = more splicing; Tetrahymena group I intron in knt gene, E. coli kanamycin selection, DiMSum; sequences stand for … in CUCUCU…GGAGGGAAAAGUUAUCAGGCAUGCACCUGGUAGCUAGUCUUUAAACCAAUAGAUUGCAUCGGUUUAAAAGGCAAGACCGUCAAAUUGCGGGAAAGGGGUCAACAGCCGUUCAGUACCAAGUCUCAGGGGAAACUUUGAGAUGGCCUUGCAAAGGGUAUGGUAAUAAGCUGACGGACAUGGUCCUAACCACGCAGCCAAGUCCUAAGUCAACAGAUCUUCUGUUGAUAUGGAUGCAGUUCACAGACUAAAUGUCGGUCGGGGAAGAUGUAUUCUUCUCAUAAGAUAUAGUCGGACCUCUCCUUAAUGGGAGCUAGCGGAUGAAGUGAUGCAACACUGGAGCCGCUGGGAACUAAUUUGUAUGCGAAAGUAUAUUGAUUAGUUUUGGAGUACUCGUGGUCG
Summary of the method: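 Pooled colonies went to amplicon sequencing on an Illumina HiSeq 2500 after six replicate transformations. The plates were LB agar with 100 μg/mL carbenicillin, 50 μM IPTG and 0.2% rhamnose, with or without 25 μg/mL kanamycin, incubated overnight at 37°C or 30°C. The E. coli BL21(DE3) library had all eight P1ex-region intron nucleotides randomised, the intron placed in the knt kanamycin-resistance gene on pET-22b(+). DiMSum fitness is the error-weighted combination of replicate fold changes, kanamycin against none, normalised to wild type.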

Sequence	self-splicing fitness (ln) (30 °C)	self-splicing fitness (ln) (37 °C)
AGUAAGCAAUAUUACGCUGU	-2.78 ± 0.22	-1.88 ± 0.3
CCUAAGCAAUAUUACGCUGU	-3.8 ± 0.33	-2.61 ± 0.33
AGAGAGCAAUAUUACGAGGG	-3.58 ± 0.39	-2.35 ± 0.42
GCCCAGCAAUAUUACGUUGU	-0.273 ± 0.044	0.021 ± 0.056
GAUGAGCAAUAUUACGUGUA	-2.77 ± 0.16	-1.87 ± 0.16
UGCAAGCAAUAUUACGGUAC	-4.35 ± 0.39	-2.38 ± 0.21
GACAAGCAAUAUUACGAUUU	-0.222 ± 0.063	0.406 ± 0.081
GCGUAGCAAUAUUACGUGCC	-3.08 ± 0.25	-2.83 ± 0.44
CCUAAGCAAUAUUACGUUGA	-3.74 ± 0.25	-1.94 ± 0.17
AACCAGCAAUAUUACGCUUC	-4.25 ± 0.16	-2.3 ± 0.11
AACUAGCAAUAUUACGUUGG	-3.74 ± 0.22	-3.5 ± 0.22
AAGAAGCAAUAUUACGCGAA	-2.18 ± 0.1	-0.344 ± 0.093
GGACAGCAAUAUUACGGGGC	-1.63 ± 0.092	-1.72 ± 0.13
AGCAAGCAAUAUUACGUCAA	-1.76 ± 0.13	-1.13 ± 0.11
GCCUAGCAAUAUUACGGUUA	-1.47 ± 0.11	-0.443 ± 0.091
UGACAGCAAUAUUACGUAGC	-4.08 ± 0.29	-2.28 ± 0.28
UCCCAGCAAUAUUACGGUGC	-2.41 ± 0.13	-1.51 ± 0.13
CAGGAGCAAUAUUACGCUCG	-3.55 ± 0.34	-1.37 ± 0.33
CUACAGCAAUAUUACGACUG	-1.86 ± 0.087	-0.44 ± 0.1
GACGAGCAAUAUUACGAGCA	-3.31 ± 0.35	-2.65 ± 0.3
GCAGAGCAAUAUUACGUCCU	-3.22 ± 0.42	-0.41 ± 0.27
ACGAAGCAAUAUUACGGGGG	-2.58 ± 0.15	-2.27 ± 0.25
GUAGAGCAAUAUUACGUCAU	-1.65 ± 0.1	-1.36 ± 0.11
ACGCAGCAAUAUUACGGGAC	-3.2 ± 0.22	-1.84 ± 0.2
GCUGAGCAAUAUUACGUGCC	-3.37 ± 0.34	–
ACCCAGCAAUAUUACGAGGU	-3.8 ± 0.12	-2.93 ± 0.14

Sequence	self-splicing fitness (ln) (30 °C)	self-splicing fitness (ln) (37 °C)
CACAAGCAAUAUUACGGUAG	-0.991 ± 0.043	-0.207 ± 0.059
CUCCAGCAAUAUUACGCGGU	-4.01 ± 0.23	-3.96 ± 0.25
GGAUAGCAAUAUUACGAUCU	-1.25 ± 0.4	-2.24 ± 0.43
UUAUAGCAAUAUUACGAAAG	-3.47 ± 0.37	-2.69 ± 0.38
CACUAGCAAUAUUACGUAGG	-1.04 ± 0.1	-0.696 ± 0.14
UGAGAGCAAUAUUACGCGCC	-1.44 ± 0.33	-1.09 ± 0.47
AACUAGCAAUAUUACGCGAA	-2.81 ± 0.16	-1.05 ± 0.12
ACGCAGCAAUAUUACGCCAA	-3.3 ± 0.2	-1.75 ± 0.17
GCCCAGCAAUAUUACGGUAG	-4.78 ± 0.23	-2.51 ± 0.19
UUAGAGCAAUAUUACGAUUC	-2.62 ± 0.25	-2.44 ± 0.35
AAGAAGCAAUAUUACGCCGU	-1.1 ± 0.13	-0.777 ± 0.15
AAUGAGCAAUAUUACGCGUC	-3.02 ± 0.29	-2.25 ± 0.29
CAAAAGCAAUAUUACGAAUA	-2.77 ± 0.16	-1.5 ± 0.15
CCGGAGCAAUAUUACGUGUC	-3.36 ± 0.14	-2.82 ± 0.14
CCUAAGCAAUAUUACGGCUU	-3.04 ± 0.15	-3.04 ± 0.21
ACCAAGCAAUAUUACGAUAA	-3.07 ± 0.18	-1.46 ± 0.16
GGGUAGCAAUAUUACGAGAC	-3.48 ± 0.32	-1.9 ± 0.42
UCUUAGCAAUAUUACGUAAA	-3.58 ± 0.29	-2.38 ± 0.25
UGACAGCAAUAUUACGAGGG	-3.73 ± 0.44	-2.11 ± 0.35
CUGGAGCAAUAUUACGAAAA	-2.86 ± 0.25	-1.6 ± 0.22
AAAGAGCAAUAUUACGCGCG	-2.69 ± 0.17	-1.65 ± 0.17
UCAGAGCAAUAUUACGCAUA	-3.19 ± 0.42	–
GAAUAGCAAUAUUACGCGGU	-2.24 ± 0.15	-2.75 ± 0.27
UUUUAGCAAUAUUACGACCU	–	-1.36 ± 0.44
AUAAAGCAAUAUUACGAUUG	-2.38 ± 0.14	-1.14 ± 0.16
AUUAAGCAAUAUUACGAUGG	-3.96 ± 0.37	-1.94 ± 0.26

Sequence	self-splicing fitness (ln) (30 °C)	self-splicing fitness (ln) (37 °C)
CUUGAGCAAUAUUACGUAGG	-1.79 ± 0.15	-0.65 ± 0.15
GUGAAGCAAUAUUACGCAAA	-2.12 ± 0.12	-1.52 ± 0.16
CGGCAGCAAUAUUACGAAGA	-2.55 ± 0.17	-1.25 ± 0.18
GUCUAGCAAUAUUACGAAUU	-1.29 ± 0.077	-0.287 ± 0.098
UGGCAGCAAUAUUACGAUUU	-1.66 ± 0.086	-0.484 ± 0.1
CUGCAGCAAUAUUACGUCAA	-3.08 ± 0.17	-1.47 ± 0.12
UAUGAGCAAUAUUACGAGUC	–	-0.461 ± 0.46
GAAGAGCAAUAUUACGAGGG	-3.54 ± 0.2	-3.02 ± 0.28
UAAUAGCAAUAUUACGGCUA	0.00533 ± 0.088	0.527 ± 0.094
GAAUAGCAAUAUUACGUACC	-0.757 ± 0.19	-0.37 ± 0.3
UUGUAGCAAUAUUACGUCCG	-1.24 ± 0.12	-0.388 ± 0.18
GCCUAGCAAUAUUACGGAUG	-1.84 ± 0.11	-0.882 ± 0.12
CCCUAGCAAUAUUACGUUAG	-3.73 ± 0.22	-2.36 ± 0.18
AGAUAGCAAUAUUACGCCCC	-1.27 ± 0.26	-0.202 ± 0.4
GCCAAGCAAUAUUACGCAGU	-2.82 ± 0.13	-1.22 ± 0.14
AUGCAGCAAUAUUACGAGCG	-0.487 ± 0.063	-0.0426 ± 0.084
AGAUAGCAAUAUUACGGGUG	-2.83 ± 0.2	-1.88 ± 0.21
GUGGAGCAAUAUUACGGCUG	-2.49 ± 0.21	-2.1 ± 0.32
UACGAGCAAUAUUACGGAAG	-3.5 ± 0.24	-2.26 ± 0.37
GGACAGCAAUAUUACGGGUU	-3.03 ± 0.11	-2.46 ± 0.21
UGGCAGCAAUAUUACGGGUG	-0.883 ± 0.071	-0.596 ± 0.088
UUGCAGCAAUAUUACGGGCA	-1.31 ± 0.13	-0.764 ± 0.14
CGAUAGCAAUAUUACGUUUG	-2.29 ± 0.081	-0.812 ± 0.081
AGUAAGCAAUAUUACGCCGU	-0.289 ± 0.17	-2.06 ± 0.31
ACGGAGCAAUAUUACGUAAC	-3.72 ± 0.37	-1.66 ± 0.22
